Data: the supplement of paper PMC5998384

How the values were obtained:
HeLa Kyoto [1] = assay: solubility change mitosis vs G1/S (difference of NP-40 vs SDS log2 ratios) (log2 ratio difference); higher = more soluble in mitosis
HeLa Kyoto [2] = assay: melting temperature (median over replicates), in situ; higher = more thermally stable
HeLa Kyoto [3] = assay: solubility in G1/S (NP-40 vs SDS abundance) (log2 ratio); higher = more soluble; conditions: cell cycle stage: G1/S
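Throughout, for melting temperature (median over replicates), in situ: HeLa Kyoto cells synchronized by double thymidine or nocodazole block, proteins quantified by TMT10plex mass spectrometry, three independent biological replicates.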
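Throughout, for solubility change mitosis vs G1/S (difference of NP-40 vs SDS log2 ratios): synchronized HeLa Kyoto cells (double thymidine block for G1/S, nocodazole release for mitosis), protein amounts in NP-40 versus SDS lysates quantified by mass spectrometry, three biological replicates.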
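Throughout, for solubility in G1/S (NP-40 vs SDS abundance): HeLa Kyoto cells arrested at G1/S by double thymidine block, proteins quantified by TMT10plex mass spectrometry in mild NP-40 versus SDS extracts, three biological replicates.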

Row | Substance | solubility change mitosis (log2) (HeLa Kyoto [1]) | melting temperature (HeLa Kyoto [2]; cell cycle stage: G1/S) [°C] | solubility in G1/S (log2) (HeLa Kyoto [3]) | melting temperature (HeLa Kyoto [2]; cell cycle stage: mitosis) [°C]
1 | MADKPDMGEIASFDKAKLKKTETQEKNTLPTKETIEQEKRSEIS [TMSB10] | 0.336 | 53.8 | -1.37 | 
2 | BAZ2A | 0.217 | 48.3 | -0.382 | 49.6
3 | MELFQAKDHYILQQGERALWCSRRDGGLQLRPATDLLLAWNPICLGLVEGVIGKIQLHSDLPWWLILIRQKALVGKLPGDHEVCKVTKIAVLSLSEMEPQDLELELCKKHHFGINKPEKIIPSPDDSKFLLKTFTHIKSNVSAPNKKKVKESKEKEKLERRLLEELLKMFMDSESFYYSLTYDLTNSVQRQSTGERDGRPLWQKVDDRFFWNKYMIQDLTEIGTPDVDFWIIPMIQGFVQIEELVVNYTESSDDEKSSPETPPQESTCVDDIHPRFLVALISRRSRHRAGMRYKRRGVDKNGNVANYVETEQLIHVHNHTLSFVQTRGSVPVFWSQVGYRYNPRPRLDRSEKETVAYFCAHFEEQLNIYKKQVIINLVDQAGREKIIGDAYLKQVLLFNNSHLTYVSFDFHEHCRGMKFENVQTLTDAIYDIILDMKWCWVDEAGVICKQEGIFRVNCMDCLDRTNVVQAAIARVVMEQQLKKLGVMPPEQPLPVKCNRIYQIMWANNGDSISRQYAGTAALKGDFTRTGERKLAGVMKDGVNSANRYYLNRFKDAYRQAVIDLMQGIPVTEDLYSIFTKEKEHEALHKENQRSHQELISQLLQSYMKLLLPDDEKFHGGWALIDCDPSLIDATHRDVDVLLLLSNSAYYVAYYDDEVDKVNQYQRLSLENLEKIEIGPEPTLFGKPKFSCMRLHYRYKEASGYFHTLRAVMRNPEEDGKDTLQCIAEMLQITKQAMGSDLPIIEKKLERKSSKPHEDIIGIRSQNQGSLAQGKNFLMSKFSSLNQKVKQTKSNVNIGNLRKLGNFTKPEMKVNFLKPNLKVNLWKSDSSLETMENTGVMDKVQAESDGDMSSDNDSYHSDEFLTNSKSDEDRQLANSLESVGPIDYVLPSCGIIASAPRLGSRSQSLSSTDSSVHAPSEITVAHGSGLGKGQESPLKKSPSAGDVHILTGFAKPMDIYCHRFVQDAQNKVTHLSETRSVSQQASQERNQMTNQVSNETQSESTEQTPSRPSQLDVSLSATGPQFLSVEPAHSVASQKTPTSASSMLELETGLHVTPSPSESSSSRAVSPFAKIRSSMVQVASITQAGLTHGINFAVSKVQKSPPEPEIINQVQQNELKKMFIQCQTRIIQI [INPP5F] | -0.171 | 51.3 | -0.015 | 49.3
4 | MPNFCAAPNCTRKSTQSDLAFFRFPRDPARCQKWVENCRRADLEDKTPDQLNKHYRLCAKHFETSMICRTSPYRTVLRDNAIPTIFDLTSHLNNPHSRHRKRIKELSEDEIRTLKQKKIDETSEQEQKHKETNNSNAQNPSEEEGEGQDEDILPLTLEEKENKEYLKSLFEILILMGKQNIPLDGHEADEIPEGLFTPDNFQALLECRINSGEEVLRKRFETTAVNTLFCSKTQQRQMLEICESCIREETLREVRDSHFFSIITDDVVDIAGEEHLPVLVRFVDESHNLREEFIGFLPYEADAEILAVKFHTMITEKWGLNMEYCRGQAYIVSSGFSSKMKVVASRLLEKYPQAIYTLCSSCALNMWLAKSVPVMGVSVALGTIEEVCSFFHRSPQLLLELDNVISVLFQNSKERGKELKEICHSQWTGRHDAFEILVELLQALVLCLDGINSDTNIRWNNYIAGRAFVLCSAVSDFDFIVTIVVLKNVLSFTRAFGKNLQGQTSDVFFAAGSLTAVLHSLNEVMENIEVYHEFWFEEATNLATKLDIQMKLPGKFRRAHQGNLESQLTSESYYKETLSVPTVEHIIQELKDIFSEQHLKALKCLSLVPSVMGQLKFNTSEEHHADMYRSDLPNPDTLSAELHCWRIKWKHRGKDIELPSTIYEALHLPDIKFFPNVYALLKVLCILPVMKVENERYENGRKRLKAYLRNTLTDQRSSNLALLNINFDIKHDLDLMVDTYIKLYTSKSELPTDNSETVENT [PRKRIR] | -0.0658 | 51.3 | 0.246 | 50.9
5 | MERFVVTAPPARNRSKTALYVTPLDRVTEFGGELHEDGGKLFCTSCNVVLNHVRKSAISDHLKSKTHTKRKAEFEEQNVRKKQRPLTASLQCNSTAQTEKVSVIQDFVKMCLEANIPLEKADHPAVRAFLSRHVKNGGSIPKSDQLRRAYLPDGYENENQLLNSQDC [CGGBP1] | 0.0407 | 51.7 | 0.332 | 51.8
6 | MALFPAFAGLSEAPDGGSSRKELDWLSNPSFCVGSITSLSQQTEAAPAHVSEGLPLTRSHLKSESSDESDTNKKLKQTSRKKKKEKKKKRKHQHHKKTKRKHGPSSSSRSETDTDSEKDKPSRGVGGSKKESEEPNQGNNAAADTGHRFVWLEDIQAVTGETFRTDKKPDPANWEYKSLYRGDIARYKRKGDSCLGINPKKQCISWEGTSTEKKHSRKQVERYFTKKSVGLMNIDGVAISSKTEPPSSEPISFIPVKDLEDAAPVTTWLNPLGIYDQSTTHWLQGQGPPEQESKQPDAQPDSESAALKAKVEEFNRRVRENPRDTQLWMAFVAFQDEVMKSPGLYAIEEGEQEKRKRSLKLILEKKLAILERAIESNQSSVDLKLAKLKLCTEFWEPSTLVKEWQKLIFLHPNNTALWQKYLLFCQSQFSTFSISKIHSLYGKCLSTLSAVKDGSILSHPALPGTEEAMFALFLQQCHFLRQAGHSEKAISLFQAMVDFTFFKPDSVKDLPTKGQVEFFEPFWDSGEPRAGEKGARGWKAWMHQQERGGWVVINPDEDDDEPEEDDQEIKDKTLPRWQIWLAAERSRDQRHWRPWRPDKTKKQTEEDCEDPERQVLFDDIGQSLIRLSSHDLQFQLVEAFLQFLGVPSGFTPPASCLYLAMDENSIFDNGLYDEKPLTFFNPLFSGASCVGRMDRLGYPRWTRGQNREGEEFIRNVFHLVMPLFSGKEKSQLCFSWLQYEIAKVIWCLHTKNKKRLKSQGKNCKKLAKNLLKEPENCNNFCLWKQYAHLEWLLGNTEDARKVFDTALGMAGSRELKDSDLCELSLLYAELEVELSPEVRRAATARAVHILTKLTESSPYGPYTGQVLAVHILKARKAYEHALQDCLGDSCVSNPAPTDSCSRLISLAKCFMLFQYLTIGIDAAVQIYEQVFAKLNSSVFPEGSGEGDSASSQSWTSVLEAITLMHTSLLRFHMKVSVYPLAPLREALSQALKLYPGNQVLWRSYVQIQNKSHSASKTRRFFDTITRSAKPLEPWLFAIEAEKLRKRLVETVQRLDGREIHATIPETGLMHRIQALFENAMRSDSGSQCPLLWRMYLNFLVSLGNKERSKGVFYKALQNCPWAKVLYLDAVEYFPDEMQEILDLMTEKELRVRLPLEELELLLED [NRDE2] | -0.031 | 48.5 | -0.208 | 49
7 | MGLGPVFLLLAGIFPFAPPGAAAEPHSLRYNLTVLSWDGSVQSGFLTEVHLDGQPFLRCDRQKCRAKPQGQWAEDVLGNKTWDRETRDLTGNGKDLRMTLAHIKDQKEGLHSLQEIRVCEIHEDNSTRSSQHFYYDGELFLSQNLETKEWTMPQSSRAQTLAMNVRNFLKEDAMKTKTHYHAMHADCLQELRRYLKSGVVLRRTVPPMVNVTRSEASEGNITVTCRASGFYPWNITLSWRQDGVSLSHDTQQWGDVLPDGNGTYQTWVATRICQGEEQRFTCYMEHSGNHSTHPVPSGKVLVLQSHWQTFHVSAVAAAAIFVIIIFYVRCCKKKTSAAEGPELVSLQVLDQHPVGTSDHRDATQLGFQPLMSDLGSTGSTEGA [MICA] | -0.108 | 55.9 | -0.128 | 57.2
8 | MGLHLRPYRVGLLPDGLLFLLLLLMLLADPALPAGRHPPVVLVPGDLGNQLEAKLDKPTVVHYLCSKKTESYFTIWLNLELLLPVIIDCWIDNIRLVYNKTSRATQFPDGVDVRVPGFGKTFSLEFLDPSKSSVGSYFHTMVESLVGWGYTRGEDVRGAPYDWRRAPNENGPYFLALREMIEEMYQLYGGPVVLVAHSMGNMYTLYFLQRQPQAWKDKYIRAFVSLGAPWGGVAKTLRVLASGDNNRIPVIGPLKIREQQRSAVSTSWLLPYNYTWSPEKVFVQTPTINYTLRDYRKFFQDIGFEDGWLMRQDTEGLVEATMPPGVQLHCLYGTGVPTPDSFYYESFPDRDPKICFGDGDGTVNLKSALQCQAWQSRQEHQVLLQELPGSEHIEMLANATTLAYLKRVLLGP [PLA2G15] | 0.0116 | 54.7 | 0.446 | 56.1
9 | MVNSSRVQPQQPGDAKRPPAPRAPDPGRLMAGCAAVGASLAAPGGLCEQRGLEIEMQRIRQAAARDPPAGAAASPSPPLSSCSRQAWSRDNPGFEAEEEEEEVEGEEGGMVVEMDVEWRPGSRRSAASSAVSSVGARSRGLGGYHGAGHPSGRRRRREDQGPPCPSPVGGGDPLHRHLPLEGQPPRVAWAERLVRGLRGLWGTRLMEESSTNREKYLKSVLRELVTYLLFLIVLCILTYGMMSSNVYYYTRMMSQLFLDTPVSKTEKTNFKTLSSMEDFWKFTEGSLLDGLYWKMQPSNQTEADNRSFIFYENLLLGVPRIRQLRVRNGSCSIPQDLRDEIKECYDVYSVSSEDRAPFGPRNGTAWIYTSEKDLNGSSHWGIIATYSGAGYYLDLSRTREETAAQVASLKKNVWLDRGTRATFIDFSVYNANINLFCVVRLLVEFPATGGVIPSWQFQPLKLIRYVTTFDFFLAACEIIFCFFIFYYVVEEILEIRIHKLHYFRSFWNCLDVVIVVLSVVAIGINIYRTSNVEVLLQFLEDQNTFPNFEHLAYWQIQFNNIAAVTVFFVWIKLFKFINFNRTMSQLSTTMSRCAKDLFGFAIMFFIIFLAYAQLAYLVFGTQVDDFSTFQECIFTQFRIILGDINFAEIEEANRVLGPIYFTTFVFFMFFILLNMFLAIINDTYSEVKSDLAQQKAEMELSDLIRKGYHKALVKLKLKKNTVDDISESLRQGGGKLNFDELRQDLKGKGHTDAEIEAIFTKYDQDGDQELTEHEHQQMRDDLEKEREDLDLDHSSLPRPMSSRSFPRSLDDSEEDDDEDSGHSSRRRGSISSGVSYEEFQVLVRRVDRMEHSIGSIVSKIDAVIVKLEIMERAKLKRREVLGRLLDGVAEDERLGRDSEIHREQMERLVREELERWESDDAASQISHGLGTPVGLNGQPRPRSSRPSSSQSTEGMEGAGGNGSSNVHV [PKD2] | -0.0995 | 52.1 | 0.00411 | 
10 | MAADVSVTHRPPLSPKSGAEVEAGDAAERRAPEEELPPLDPEEIRKRLEHTERQFRNRRKILIRGLPGDVTNQEVHDLLSDYELKYCFVDKYKGTAFVTLLNGEQAEAAINAFHQSRLRERELSVQLQPTDALLCVANLPPSLTQQQFEELVRPFGSLERCFLVYSERTGQSKGYGFAEYMKKDSAARAKSDLLGKPLGPRTLYVHWTDAGQLTPALLHSRCLCVDRLPPGFNDVDALCRALSAVHSPTFCQLACGQDGQLKGFAVLEYETAEMAEEAQQQADGLSLGGSHLRVSFCAPGPPGRSMLAALIAAQATALNRGKGLLPEPNILQLLNNLGPSASLQLLLNPLLHGSAGGKQGLLGAPPAMPLLNGPALSTALLQLALQTQGQKKPGILGDSPLGALQPGAQPANPLLGELPAGGGLPPELPPRRGKPPPLLPSVLGPAGGDREALGLGPPAAQLTPPPAPVGLRGSGLRGPLSHFYSGSPTSYFTSGLQAGLKQSHLSKAIGSSPLGSGEGLLGLSPGPNGHSHLLKVRAGGGDMQGWEAPAPQRPLTRPALPSVSRPHWAARNAALPTCCPRPSPAQKAAMWASTPRASAATTRTPT [RAVER1] | 0.165 | 46.3 | 0.344 | 48.9
